# Tests used:
# [1] = target: T1, CDCP1 expressed on the surface of human cells (PC3, H1299, H2009 and others) (human, UniProt Q9H5V8 30-836); assay: flow cytometry on H1299 cells (NSCLC), anti-human IgG Fc R-PE detection
# T1 construct: Endogenous CDCP1 of human cell lines; also called CDCP1 antigen expressed on PC3 cells; CDCP1 expressing cells
# Protocol: (§1) Binding was evaluated on three human cancer cell lines, PC3 (prostate cancer), H1299 (Non-small cell lung cancer), and H2009 (lung adenocarcinoma). To accomplish this, adherent cells were first dissociated with Cell Dissociation Buffer (Life Technologies #13150-016), pelleted by centrifugation, and resuspended by FACS buffer (PBS-CMF, 3% FBS, 0.1% weight/volume (w/v) sodium azide). […] Following a thirty-minute incubation on ice in dark, the cells were washed twice, combined with eFluor 660 Fixable Viability Dye (eBioscience #65-0864-18), and fixed (BD Cytofix, BD Biosciences #554655). Stained cells were acquired on a LSR Fortessa instrument using BD FACSDiva Software. Background subtracted gMFI of viable cells was determined using FlowJo software and plotted using Graphpad Prism software to generate EC₅₀ s (FIGS. 26A and 26B).
# [2] = target: T1, CDCP1 expressed on the surface of human …; assay: flow cytometry on H2009 cells (lung adenocarcinoma), anti-human IgG Fc R-PE detection
# Protocol: as §1
# [3] = target: T2, recombinant human CDCP1 extracellular domain (CDCP1-ECD) (human, UniProt Q9H5V8 30-663); assay: SPR (Biacore T200), antibody captured on anti-human IgG, CDCP1-ECD injected; experiment 2
# T2 construct: Expressed in HEK293 and chemically biotinylated for the phage selection; also called human CDCP1 ECD; human CDCP1-ECD
# Protocol: (§2) Specifically, the binding kinetics of anti-CDCP1 antibodies against recombinant human, cynomologus monkey and mouse CDCP1-ECD were determined using surface plasmon resonance (SPR) and a Biacore T200 instrument (GE Healthcare). An anti-human IgG antibody was amine coupled onto a CM5 carboxymethylated dextran sensor chip surface (GE Healthcare), using the manufacturer's recommendations, to densities of approximately 10,000-13,000 response units (RU). Each anti-CDCP1 antibody was diluted to 0.5 μg/mL in 10 mM HEPES pH 7.4, 0.15 M NaCl, 3 mM EDTA, 0.05% P-20 (HBS-EP+) and captured for about 20-23 seconds at a flow rate of 10 μL/min. […] The sensorchip surface was regenerated with three 30 second pulses of 3M MgCl₂ at a flow rate of 50 μL/minute. All injections used HBS-EP+ as both the running and sample buffer and were performed at 25° C. with a data collection rate of 1 Hz. Sensorgrams were double referenced by using both a control surface and buffer injections. Rate constants were determined by fitting the data to a 1:1 model with Biacore T200 evaluation software v3.0 and the equation KD=kd/kₐ.
# [4] = target: T3, recombinant cynomolgus monkey CDCP1 extracellular domain (cynomolgus monkey, UniProt A0A2K5VLA8 30-663); assay: as above
# T3 construct: range 30-663; also called cyno CDCP1 ECD; cynomolgus monkey CDCP1-ECD
# T3 sequence (A0A2K5VLA8 entry or part of it): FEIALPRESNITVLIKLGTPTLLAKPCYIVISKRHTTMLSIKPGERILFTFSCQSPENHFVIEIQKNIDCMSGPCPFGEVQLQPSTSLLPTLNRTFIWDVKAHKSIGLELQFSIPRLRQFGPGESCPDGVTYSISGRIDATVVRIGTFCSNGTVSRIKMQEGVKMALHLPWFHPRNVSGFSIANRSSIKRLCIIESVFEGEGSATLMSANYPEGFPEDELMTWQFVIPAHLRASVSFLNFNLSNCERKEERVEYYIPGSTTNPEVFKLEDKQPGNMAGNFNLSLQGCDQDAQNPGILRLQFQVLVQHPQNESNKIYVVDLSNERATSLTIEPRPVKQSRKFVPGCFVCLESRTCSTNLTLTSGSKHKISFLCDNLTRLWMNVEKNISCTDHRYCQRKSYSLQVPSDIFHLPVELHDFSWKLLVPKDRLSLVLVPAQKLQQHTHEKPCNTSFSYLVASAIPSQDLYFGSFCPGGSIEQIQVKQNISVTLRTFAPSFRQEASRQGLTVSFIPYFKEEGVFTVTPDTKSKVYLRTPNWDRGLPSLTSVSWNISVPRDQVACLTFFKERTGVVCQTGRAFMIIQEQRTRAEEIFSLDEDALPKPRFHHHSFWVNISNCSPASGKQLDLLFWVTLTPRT
# Protocol: as §2
# [5] = target: T2, recombinant human CDCP1 extracellular …; assay: SPR (Biacore T200), antibody captured on anti-human IgG, CDCP1-ECD injected
# Protocol: as §2
# [6] = target: T3, recombinant cynomolgus monkey CDCP1 …; assay: as above
# Protocol: as §2
# [7] = target: T1, CDCP1 expressed on the surface of human …; assay: flow cytometry on PC3 cells (prostate cancer), anti-human IgG Fc R-PE detection
# Protocol: as §1
# [8] = target: T2, recombinant human CDCP1 extracellular …; assay: SPR, Biacore T200
# Protocol: as §2
# [9] = target: T3, recombinant cynomolgus monkey CDCP1 …; assay: SPR, Biacore T200
# Protocol: as §2
# [10] = target: T1, CDCP1 expressed on the surface of human …; assay: competition FACS on PC3 cells; competitor: biotinylated CP13E10 reporter at 1.5 µg/mL, streptavidin-PE detection
# Protocol: For this competition FACS assay procedure, PC3 cells were detached from flasks using cell dissociation buffer (Gibco, catalog number 13151-014), washed once with ice-cold FACS buffer (PBS-CMF pH 7.2+3% FBS+0.1% sodium azide) and 2.5×10⁵ cells in 50 μl buffer were added to each well in 96-well V-bottom plates (Corning catalog number 3894). […] Next, the cells were washed twice with FACS buffer. Streptavidin-PE (Invitrogen/eBioscience catalog number 12-4317-87) diluted 1:200 was added and incubated for 30 minutes at room temperature. The cells were washed twice with FACS buffer and were fixed on ice for 15 minutes by adding 100 μl of BD Cytofix (BD Biosciences catalog number 554655) to each well. The cells were washed twice with FACS buffer.
# [11] = target: T2, recombinant human CDCP1 extracellular …; assay: competition ELISA of Example 7 on CDCP1-ECD (biotinylated CP13E10-54HC-89LC reporter as described there; the reporter is not named on the sheet)
# Protocol: The CDCP1-ECD protein was diluted to 1 μg/ml in PBS-CMF pH 7.2, 100 μl was added to each well of the plate, and the plate was incubated overnight at 4° C. The contents of the plate were discarded and then the plate was blocked with PBS-CMF pH7.2+0.02% casein for 3 hours at room temperature. […] The wells were washed four times with PBS-CMF pH7.2+0.03% tween-20. Streptavidin-HRP (catalog #7100-05, Southern Biotech, (Birmingham, Alabama) diluted 1:10,000 was added and incubated for 30 minutes at room temperature. The wells were washed four times with PBS-CMF pH 7.2+0.03% tween-20 and then TMB (BioFx) was added. The reaction developed for 5 to 10 minutes and was then quenched with 0.18 N H₂SO₄. The absorbance at 450 nm was determined and the results are shown in FIG. 7.
# [12] = target: T1, CDCP1 expressed on the surface of human …; assay: immunoprecipitation: antibody 76 (20 ng/ml) added to intact PC3 cells (80 min, 4 °C), Western blot
# [13] = target: T1, CDCP1 expressed on the surface of human …; assay: immunoprecipitation: antibody 24 (5 µg/ml) added to intact PC3 cells (80 min, 4 °C), Western blot
# [14] = target: T1, CDCP1 expressed on the surface of human …; assay: competition FACS on PC3 cells; competitor (reporter) biotinylated CP13E10
binder,measurement,setting,value
"CP13E10-54HC-89LC (antibody, human IgG1, kappa, V domains shown, Human IgG1, kappa; Alexa Fluor 647 conjugated in the internalization assay; also called CP13E10-54VH-89VL) VH: EVQLVQSGAEVKKPGASVKVSCKASGYTFTSYYMHWVRQAPGQGLEWMGIINPSGGSTSYAQKFQGRVTMTRDTSTSTVYMELSSLRSEDTAVYYCARDGELRHFDHLLDYHYYMDVWGQGTTVTVSS VL: EIVLTQSPATLSLSPGERATLSCRASQSVGSYLAWYQQRPGQAPRLLIYDASNRATGIPARFSGSGSGTDFTLTISSLEPEDFAVYYCQQRAQEFTFGQGTKVEIKR",EC50,[1],0.73 nM
same,EC50,[2],0.77 nM
same,Kd,[3],42 nM
same,Kd,[4],63.4 nM
same,Kd,[5],52.9 nM
same,Kd,[6],79.9 nM
same,EC50,[7],1.69 nM
"CP13E10-291 (antibody, human IgG1, kappa, V domains shown, Human IgG1, kappa) VH: EVQLVQSGAEVKKPGASVKVSCKASGYTFTSYYMHWVRQAPGQGLEWMGIINPSGGSTSYAQKFQGRVTMTRDTSTSTVYMELSSLRSEDTAVYYCARDGELRHFDQVYNYHYYMDVWGQGTTVTVSS VL: EIVLTQSPATLSLSPGERATLSCRASQSVGSYLAWYQQRPGQAPRLLIYDASNRATGIPARFSGSGSGTDFTLTISSLEPEDFAVYYCQQRANVFTFGQGTKVEIKR",Kd,[5],2.9 nM
same,Kd,[6],3.12 nM
same,fold increase in affinity relative to CP13E10-34,[8],> 200 fold
same,fold increase in binding relative to CP13E10-WT,[9],> 70 fold
"CP13E10-54 variant (antibody, human IgG1, kappa, V domains shown) VH: EVQLVQSGAEVKKPGASVKVSCKASGYTFTSYYMHWVRQAPGQGLEWMGIINPSGGSTSYAQKFQGRVTMTRDTSTSTVYMELSSLRSEDTAVYYCARDGELRHFDHLLDYHYYMDVWGQGTTVTVSS VL: EIVLTQSPATLSLSPGERATLSCRASQSVGSYLAWYQQRPGQAPRLLIYDASNRATGIPARFSGSGSGTDFTLTISSLEPEDFAVYYCQQRANVFTFGQGTKVEIKR",IC50 (read off the curve),[10],~9 nM
"CP13E10 (antibody, human IgG1, kappa, V domains shown, Human IgG1, kappa; Heavy chain can be prepared with or without the C-terminal lysine; also called CP13E10-WT; parental CP13E10 antibody) VH: EVQLVQSGAEVKKPGASVKVSCKASGYTFTSYYMHWVRQAPGQGLEWMGIINPSGGSTSYAQKFQGRVTMTRDTSTSTVYMELSSLRSEDTAVYYCARDGVLRYFDWLLDYYYYMDVWGKGTTVTVSS VL: EIVLTQSPATLSLSPGERATLSCRASQSVGSYLAWYQQRPGQAPRLLIYDASNRATGIPARFSGSGSGTDFTLTISSLEPEDFAVYYCQQRANVFTFGQGTKVEIKR",IC50 (read off the curve),[10],~7 nM
same,Kd,[5],219 nM
same,Kd,[6],232 nM
"CP13E10-54HCv13-89LCv1 (antibody, human IgG1, kappa, V domains shown) VH: EVQLVQSGAEVKKPGASVKVSCKASGYTFTSYYMHWVRQAPGQGLEWMGIINPSGGSTSYAQKFQGRVTMTRDTSTSTVYMELSSLRSEDTAVYYCARDAELRHFDHLLDYHYYMDVWGQGTTVTVSS VL: EIVMTQSPATLSLSPGERATLSCRASQSVGSYLAWYQQKPGQAPRLLIYDASNRATGIPARFSGSGSGTDFTLTISSLQPEDFAVYYCQQRAQEFTFGQGTKVEIKR",IC50 (read off the curve),[11],~5 nM
"antibody 76 (antibody, human IgG1, lambda, V domains shown, Human IgG1, lambda) VH: QVQLVQSGAEVKKPGSSVKVSCKASGGTFSSYAISWVRQAPGQGLEWMGGIIPIFGTANYAQKFQGRVTITADKSTSTAYMELSSLRSEDTAVYYCARDPTYFDWTRRGYYYMDVWGKGTTVTVSS VL: SYELTQPPSVSVSPGQTARITCSGDALPKKYAFWYQQKSGQAPVLVIYEDSKRPSGIPEKFSGSSSGTMATLTISGAQVEDEADYYCYSTDSSDNPRGVFGGGTKLTVLG",binding result,[12],binds
"antibody 24 (antibody, human IgG1, kappa, V domains shown, Human IgG1, kappa) VH: QVQLVESGGGVVQPGRSLRLSCAASGFTFSSYGMHWVRQAPGKGLEWVAVISYDGSNKYYADSVKGRFTISRDNSKNTLYLQMNSLRAEDTAVYYCARGVGLPDIWGQGTMVTVSS VL: EIVMTQSPDTLSLSPGERATLSCRASQKIYYSYLAWYQQKPGQAPRLLISGASTRASDISDRFSGGGSGTDFTLTINSLESEDAAVYYCQQYDSLPVTFGRGTKLEIKR",binding result,[13],binds
"CP13E10-34 variant (antibody, V domains shown) VH: EVQLVQSGAEVKKPGASVKVSCKASGYTFTSYYMHWVRQAPGQGLEWMGIINPSGGSTSYAQKFQGRVTMTRDTSTSTVYMELSSLRSEDTAVYYCARDGVLRHFDHLLDYHYYMDVWGKGTTVTVSS VL: EIVLTQSPATLSLSPGERATLSCRASQSVGSYLAWYQQRPGQAPRLLIYDASNRATGIPARFSGSGSGTDFTLTISSLEPEDFAVYYCQQRANVFTFGQGTKVEIKR",fold lower binding relative to parental CP13E10,[14],> 7 fold
same,Kd,[5],607 nM
